± gives the uncertainty stated by the source.

The first series can be described thus: amyloid nucleation score (Sup35N fusion, yeast selection) (log enrichment); library NNK2; higher = more nucleation; inactive = no reads after selection. In outline:
(§1)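 Output and input plasmid inserts were sequenced by Illumina after psi-negative yeast carrying Sup35N fused to peptides of 20 random codons had been induced 24 hours with 100 μM copper sulfate and grown 7 days at 30°C on medium lacking adenine and uracil. The nucleation score is the DiMSum log enrichment of output over input reads, centred on the mode score of non-aggregating sequences. Sequences with under 100 input reads were excluded.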
As for LFYGNHWAPASWIWN, the amyloid nucleation score came out at 2.34 ± 0.15. Same read-out and setting: the same measure for MLDMPDYCNYYL: 1.27 ± 0.14; for TVCFDSLNHITSFIRGRFSL: “inactive”. In turn, RYYDLTNVVRPHYPCAHGDV had an amyloid nucleation score of 7.333 ± 0.054.

Substance YVNFIVFTDMIWDS displayed an amyloid nucleation score of 4.94 ± 0.09. Substance TLFIMC showed an amyloid nucleation score of 0.074 ± 0.54.

YCHALARLSGFL gave an amyloid nucleation score of 0.127 ± 0.27.

Take FVNLRFSKVGWYDLF: the amyloid nucleation score was -0.255 ± 0.65.

For the substance HLRWARRIGVCTVFYLSRIC, the amyloid nucleation score was 0.483 ± 0.57. Still for that read-out and setting: the figure for CSFYRSWVLTNWSANVVFTW is -0.217 ± 0.39; for RTYILYSDFGCRRCDY it is 3.56 ± 0.1; for VSRSSRWYNRIGMVRSVWNK it is -0.139 ± 0.21. As for KWVGWMWGYEGSLWSSNLWR, the amyloid nucleation score came to 0.242 ± 0.77. For VFLSRVFNSF, the amyloid nucleation score is -0.317 ± 0.79. On the same count and under the same terms, the same measure for LSGLVFIN: -0.053 ± 1. Same read-out and setting: the same measure for LDPCGYVVSSEGMLVIGVPI: 0.209 ± 0.39; for ALKNLHAHTG: 0.015 ± 0.8; for PLYSPRVCFFGYAPKVCITH: -0.724 ± 0.4. In the case of WFACYMRIAGTGQEVMYVTM, the amyloid nucleation score came out at 0.424 ± 0.24. The same measure, in the same setting: the figure for IRNLLCVSYGCTGYMMVGHG is 4.68 ± 0.063. Same read-out and setting: the same measure for FYWHCKGWQRISLGRFIGDC: -0.622 ± 0.61; for VILYGFNKVMECSTYVVV: -0.804 ± 1.1; for QFVGFVRWFVWEWGLLVID: 0.706 ± 0.81. Same read-out and setting: the figure for SFRTLVP is -0.905 ± 0.63; for ECHANASFFLCRGAERSACG it is 0.783 ± 0.58. In turn, VLPLGHWMAFMTREVCGADM registered an amyloid nucleation score of 0.514 ± 0.17. Still for that read-out and setting: the same measure for GSTVKYWCMPGSSLLLHCVY: 0.611 ± 0.66; for YSYILSFSSFFYFLRHCIKY: “inactive”.

On to AVYYGSMWLGQGGIVPW, for which the amyloid nucleation score was determined as 1.93 ± 0.15.

SCLSGFTIWQVSLRYCASFG yielded an amyloid nucleation score of 0.312 ± 0.38.

The substance YGMKSRVECVVY gave an amyloid nucleation score of -0.949 ± 0.63.

Turning to VCFRYGEYLNVKIF, the amyloid nucleation score is -0.789 ± 0.63.

Turning to IVHYGETNG, the amyloid nucleation score stood at 0.494 ± 0.38. In the case of YDRKGIQCKRLAGPGQRHRS, the amyloid nucleation score was found to be 0.244 ± 0.39. Same read-out and setting: the same measure for PMICEHAGHSGWH: 1.11 ± 0.22; for YLYSPLVMSSHYMLFT: 5.125 ± 0.048. For YRYKRLSRRV, the amyloid nucleation score is -1.09 ± 0.78. Same read-out and setting: the figure for PRSGSYYTFF is -0.672 ± 1.1. Still for that read-out and setting: the same measure for IIYNKSW: 2.77 ± 0.094; for KTLVKESCCNLNSRSDLWGL: -0.754 ± 0.76; for SAQWGREMVISARHRVPVEL: 4.92 ± 0.079. The same measure, in the same setting: the same measure for PFVNVM: -0.047 ± 0.38; for PICLPVNMLVFKSMNSN: 2.28 ± 0.073. In turn, MVAGDKRDGG came in with an amyloid nucleation score of 2.39 ± 0.07. FVTCYKLWMAFYTMVQSRKS gave an amyloid nucleation score of 1.17 ± 0.48. Turning to FSGLGDCEVMYVFVNNRLGW, the amyloid nucleation score is -0.699 ± 1.

As for IRKCRSHSFSRFRRHFS, the amyloid nucleation score was 0.285 ± 1. The same measure, in the same setting: the same measure for SPYVRWDKTNLIGWEWYRVE: -0.819 ± 0.43; for NIRVNDCVRHPSGDVQARVS: -0.014 ± 0.35.

AFSSCSMFATNRLPTSYKSD yielded an amyloid nucleation score of 3.48 ± 0.084. The substance CNSYEYLRN returned an amyloid nucleation score of -0.035 ± 0.76.

For KYSIGTETVHGCLQPLCPAH, the amyloid nucleation score was -0.095 ± 0.46. Regarding LVLTSLQHGQFVVVVSVVW, the amyloid nucleation score is 0.543 ± 0.31.

For DFSLSGCPGMNRGDYDLHSK, the amyloid nucleation score entry was “inactive”. On to RIENFVWC, for which the amyloid nucleation score is -0.688 ± 0.63. Same read-out and setting: the same measure for MLVSGSSLEW: 0.264 ± 0.42; for LWVCSCSNALTNGLWGAVSL: 5.151 ± 0.036; for IITYVLLFNKFNTGVCE: 7.393 ± 0.049.

The substance IHVPIQ showed an amyloid nucleation score of -0.046 ± 0.54. Same read-out and setting: the entry for ACFSNMDCPGGFVHVFALYG is “inactive”. The same measure, in the same setting: the same measure for RYMKAG: -0.558 ± 0.54.

NCEVFNGDALWRSFTGRYLM showed an amyloid nucleation score of 0.042 ± 1.1.

CRLCSGLREMQPIRLM had an amyloid nucleation score of 0.77 ± 0.51.

DRFQMGCLWGNNEYLLSAMA: the amyloid nucleation score was -1.97 ± 0.75. The same measure, in the same setting: the figure for SLLGRRIFWLCHEFMSSSLV is 0.21 ± 1. The same measure, in the same setting: the figure for QKTWEIANCFAELEKKIRQG is 2.4 ± 0.069.

With FTRRSGSRLWTRFALGDWVA, the amyloid nucleation score entry is “inactive”.

For the substance WSMSVLVSPHVMFKNAMEVL, the amyloid nucleation score came to 0.22 ± 0.28. The same measure, in the same setting: the figure for FGHNGRICKRLMEVPIFERA is -0.655 ± 0.32. On the same count and under the same terms, the same measure for GVVNLTD: 3.01 ± 0.061; for DYLSIFDYHDMMGQNFL: -0.151 ± 0.49; for FYVRSSTYFFHVYNYL: -0.387 ± 0.28. The same measure, in the same setting: the figure for VINRMCIVWPYMSSYWEWNV is 9.126 ± 0.06. In the case of FGYAVVQRYYKWWIAMNTQA, the amyloid nucleation score is -0.04 ± 0.42. On the same count and under the same terms, the figure for MSVKSEAGRRSLRMNSKTSR is 0.078 ± 0.22; for AGSSSVNQITCLH it is -0.22 ± 1. Same read-out and setting: the figure for RPRILYLLLFLYNHFLTSYK is -1.08 ± 1; for NVLQLDPFFAYSVRCILGSE it is “inactive”; for GINCRGAIR it is -0.345 ± 0.26. On the same count and under the same terms, the figure for CFAVAKEWLNAAVHGVGQFP is 0.123 ± 0.38; for DTIILC it is “inactive”.

For the substance ISRIIVPDSRLAYGEWFEIV, the amyloid nucleation score is 1.53 ± 0.58. In turn, LIAKMAIKFKGDAQF returned an amyloid nucleation score of 4.05 ± 0.09. The same measure, in the same setting: the same measure for ARFFGFYYPTTGIPGNYGFC: -0.315 ± 1. Still for that read-out and setting: the same measure for HYCRHLLVLHSSKYARSHSS: -0.338 ± 0.37.

FVYSVRS had an amyloid nucleation score of 0.025 ± 0.63. Still for that read-out and setting: the same measure for GRPVMMEMPII: 0.512 ± 0.42; for AKDRTCRWLISKQSIPDSRA: 0.119 ± 0.27; for DRNPSGNSERPHVMPHPSVD: -0.146 ± 0.32. In turn, NNLGKEWKNIWGECLRRVAP registered an amyloid nucleation score of 4.48 ± 0.079. Same read-out and setting: the same measure for PDGTVYDGYSFCSVS: -0.615 ± 0.63.

In turn, SGFII returned an amyloid nucleation score of -1.18 ± 1.1. Take DSCRGMVSFCG: the amyloid nucleation score is -0.399 ± 0.35. The same measure, in the same setting: the same measure for NTGFTLMGCWPMYYCWSFSW: -0.073 ± 1; for LEQKVIIRCCPN: 0.091 ± 0.18.

For CLLHGCHYLSSYLKFSQSWL, the amyloid nucleation score result is “inactive”. Regarding LRVPIR, the amyloid nucleation score is 0.077 ± 0.28.

A short description of a further series: amyloid nucleation score (Sup35N fusion, yeast selection) (log enrichment); library NNK3; higher = more nucleation; inactive = no reads after selection. A digest of the protocol:
as §1
For RRGYLVYFGSTFYYSSNSFW, the amyloid nucleation score turned out to be 0.468 ± 0.19. Still for that read-out and setting: the same measure for QYLCWCCVARRPGSGFRTVV: “inactive”; for GSICLRQGPSVMVLRMWLCD: “inactive”; for IITPELYGKLRLHH: “inactive”. Take FWFSTELVDDGAGQT: the amyloid nucleation score entry was “inactive”. Same read-out and setting: the same measure for GLHLIFFSYHRWHVTLK: “inactive”; for VIKDYSQCMSWHGVESSWRL: -0.31 ± 0.68. Same read-out and setting: the entry for IARINGMLASSGVASTM is “inactive”; for FTNLYMPTRERHCRGSHMW it is “inactive”; for QTSNMVAWCLSLFRAGRPTK it is “inactive”.

KLKFMPRLSHKWDRDQLRVH: the amyloid nucleation score result is “inactive”.

Take LVSSMMIHVYFNEVLVFMIC: the amyloid nucleation score was determined as 0.796 ± 0.1.

NQEQWWLATAYPNVSWSIKL: the amyloid nucleation score entry was “inactive”. Still for that read-out and setting: the same measure for FVIVGSGSQSPEYIWNVKYE: -0.049 ± 0.32; for QNCIHKRRSLGSTCATEWDV: -0.399 ± 1; for DYGATGHC: “inactive”.

As to WIHSGSSHWLNACDRMDMTK, the amyloid nucleation score is -0.753 ± 1.3. As to ITQWWVYIKNF, the amyloid nucleation score entry is “inactive”. The same measure, in the same setting: the same measure for LLCND: “inactive”; for GLFMRFTRWCRGKHVTMVP: “inactive”. On the same count and under the same terms, the entry for WIGMYSGETAFLSLPVTQQI is “inactive”; for WFSSKRDLR it is “inactive”. Same read-out and setting: the entry for SCFCQILPFRV is “inactive”; for YSIIVSRNRNGRLRFRWSNG it is -0.368 ± 0.8; for LTIINRFEFRQKNINGTYRK it is 2.73 ± 0.068.

Regarding CSRALYGCDRISRGLLEVCG, the amyloid nucleation score entry was “inactive”. Still for that read-out and setting: the figure for KGETDFVLKP is -0.432 ± 0.87. For the substance LFMLIFGCVHARNYFKPKKV, the amyloid nucleation score entry is “inactive”. Take FSIVMTRFSFGSRVGSFYNF: the amyloid nucleation score was 0.151 ± 0.44. Consider ACNSPEVLQNLQRLRSCGRR, for which the amyloid nucleation score entry is “inactive”. The same measure, in the same setting: the same measure for KLMPVIVTFNRYFFGQVMEE: 1.2 ± 0.14. The same measure, in the same setting: the same measure for CIIFYCIYGFN: 3.04 ± 0.073. The same measure, in the same setting: the entry for GIAGCKSRSCLLPYCNWVSV is “inactive”; for SYLRQDDVEMAVIWTGHMSV it is “inactive”; for ESLNGLNRSHA it is “inactive”. Consider ENALARMLAEEI, for which the amyloid nucleation score result was “inactive”.

Take FVDLSGRSCRVPTEVWGFHS: the amyloid nucleation score entry is “inactive”. Substance NNTSGNLVCFSVKCNVIVPY yielded an amyloid nucleation score of 2.42 ± 0.056. On the same count and under the same terms, the entry for RKLTCTSGLA is “inactive”; for CYFQYGNWFHLEGRNRSRSN it is 1.17 ± 0.19.

The record behind these values is the supplement of paper PMC12042874.
